Three molecules from patent US20230365705A1 (DYNAMICURE BIOTECHNOLOGY, published 2023) can be followed below.

Where two headings read alike, the source gives them in different places.

The target in experiment [1] is T1, Human CD93 recombinant protein (Sino Biological Inc, Catalog #12589-H08H) (human, UniProt Q9NPY3 22-580).
T1 construct: Biotinylated (EZ-LINK NHS-PEG4 biotin) in the BLI assays; also called hCD93; His-tagged human CD93
T1 sequence (looked up): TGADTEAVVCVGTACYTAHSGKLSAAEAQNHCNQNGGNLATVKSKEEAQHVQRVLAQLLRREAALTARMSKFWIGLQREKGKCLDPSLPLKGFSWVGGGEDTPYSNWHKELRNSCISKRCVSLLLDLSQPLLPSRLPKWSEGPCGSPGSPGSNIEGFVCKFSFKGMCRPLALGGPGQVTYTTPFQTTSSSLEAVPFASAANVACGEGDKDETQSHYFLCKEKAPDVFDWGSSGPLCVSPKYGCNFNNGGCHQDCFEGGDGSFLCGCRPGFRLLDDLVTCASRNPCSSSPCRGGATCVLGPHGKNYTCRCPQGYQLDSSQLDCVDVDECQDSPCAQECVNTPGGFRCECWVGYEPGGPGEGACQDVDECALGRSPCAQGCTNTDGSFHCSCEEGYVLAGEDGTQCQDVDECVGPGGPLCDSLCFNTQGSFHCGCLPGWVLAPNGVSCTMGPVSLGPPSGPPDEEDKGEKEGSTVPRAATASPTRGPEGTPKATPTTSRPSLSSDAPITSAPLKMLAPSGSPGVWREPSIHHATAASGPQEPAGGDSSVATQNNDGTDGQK
Put plainly: BLI (Octet QKe), biotinylated human CD93 on streptavidin biosensors; antibody stored 4 weeks at 40 C. How it is done:
(§1) The binding affinity of anti-CD93 antibodies was determined with bio-layer interferometry using Octet QKe (Fortebio). […] Human CD93 recombinant protein (Sino Biological Inc, Catalog #12589-H08H) was biotinylated using EZ-LINK NHS-PEG4 biotin (Thermo Fisher Scientific). Streptavidin biosensors (Fortebio) were used to load biotinylated CD93 protein (300 seconds in 5 μg/ml). Baseline was stabilized for 60 seconds in 1×kinetics buffer (Fortebio) before anti-CD93 antibodies, at a serial dilution, were allowed to associate for 300 seconds with captured protein. Then the sensors were dissociated in 1× kinetics buffer for 600 seconds. […] (FIG. 41).
For orientation: In BLI a coated tip is dipped into the sample, and binding shifts an interference pattern.

Experiment [2] has as its target T2, Human CD93 on cells (human CD93 expressing CHO cells; HUVEC, U937 and KG1a cells) (human, UniProt Q9NPY3 22-652).
T2 construct: whole, on cells; also called hCD93 expressing CHO cells; hCD93 CHO cells
T2 sequence (looked up): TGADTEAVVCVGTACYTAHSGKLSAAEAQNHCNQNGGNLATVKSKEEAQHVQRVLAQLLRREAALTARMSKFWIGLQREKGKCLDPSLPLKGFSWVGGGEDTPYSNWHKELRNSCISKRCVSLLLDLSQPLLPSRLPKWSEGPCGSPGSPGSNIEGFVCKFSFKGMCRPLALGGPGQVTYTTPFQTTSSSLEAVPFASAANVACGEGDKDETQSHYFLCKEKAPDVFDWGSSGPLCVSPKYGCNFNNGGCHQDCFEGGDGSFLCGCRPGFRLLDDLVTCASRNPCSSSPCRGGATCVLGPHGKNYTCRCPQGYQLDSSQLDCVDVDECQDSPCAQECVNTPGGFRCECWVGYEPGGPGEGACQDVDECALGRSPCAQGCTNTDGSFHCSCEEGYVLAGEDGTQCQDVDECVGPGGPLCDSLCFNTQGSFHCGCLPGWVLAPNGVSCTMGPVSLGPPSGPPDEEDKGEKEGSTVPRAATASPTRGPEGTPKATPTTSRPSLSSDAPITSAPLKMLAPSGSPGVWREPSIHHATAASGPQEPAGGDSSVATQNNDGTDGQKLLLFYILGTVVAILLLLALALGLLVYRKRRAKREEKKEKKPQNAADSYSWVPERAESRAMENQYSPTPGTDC
Nature of the experiment: flow cytometry titration, CHO-hCD93 cells; antibody stored 4 weeks at 40 C. As to the method:
Human CD93 expressing CHO cells were detached by incubation with TrypLE reagents (Thermo Fisher), which preserves the integrity of CD93 on the cell surface. Then the cells were incubated with serial diluted anti-CD93 antibodies for 30 minutes at 4° C. After washing by FACS buffer, the cells were incubated with Alexa Fluor 647 conjugated anti-human IgG (Jackson ImmunoResearch) for 30 minutes in 4° C. After washing by FACS buffer twice, the samples were acquired in NovoCyte Flow Cytometer and analyzed by NovoExpress software.
In general terms: Flow cytometry measures light scatter and fluorescence of single cells or particles in a stream.

The target of experiment [3] is T1, Human CD93 recombinant protein (Sino …). Put plainly: BLI (Octet QKe), biotinylated human CD93 on streptavidin biosensors; antibody stored 4 weeks at 40 C. As to the method:
as §1, with “1× kinetics” for “1×kinetics”, “42).” for “41).”
This is another data set of the same source.

Experiment [4] has the same target. Put plainly: ELISA, hCD93-His coated, OD450; unit printed as pmM. As to the method:
His-tagged human CD93 was coated onto a 96 well plate at 1 μg/mL in 1×PBS overnight at 4° C. The plate was washed with ELISA wash buffer (Boston BioProduct, Inc.) and the wells were blocked with ELISA blocking buffer for 1 hour at 37° C. Purified antibodies were serially diluted in ELISA blocking buffer (Boston BioProduct, Inc.) and incubated on the receptor for 1 hour at 37° C. The plate was washed with ELISA wash Buffer. […] The plate was washed with ELISA wash buffer. HRP substrate was added for indirect detection of the antibodies binding to CD93.
Background: In an ELISA, binding on a coated surface is turned into a signal by an enzyme label.

Experiment [5] has as its target T2, Human CD93 on cells (human CD93 …). Put plainly: flow cytometry blocking assay, CHO-hCD93 cells, antibody 50 ug/ml then MMRN2 0.5 ug/ml, APC-A. How it is done: After incubation, the cells were washed with FACS buffer and incubated with anti-His conjugated APC or streptavidin conjugated APC at a ratio of 1:500 for 30 minutes at 4° C. After washing with FACS buffer twice, the samples were analyzed and data acquired in NovoCyte Flow.

By Kd is commonly meant the concentration at which binding is half-saturated. Usually koff stands for a measure of how fast the partners let go of each other. The kon is the rate constant with which the complex forms. In general, EC50 refers to the concentration needed to bring the measured effect to its halfway point.

B1: h7F3 (humanized 7F3, VH3+VL3) (antibody, human IgG1, V domains shown)
VH: QVQLVQSGAEVKKPGASVKVSCKASGYTFTDYEMHWVRQAPGQGLEWMGGIDPETGDTAYNQNFKGRVTMTTDTSTSTAYMELRSLTSDDTAVYYCTNYGNLYYYAMDYWGQGTSVTVSS
VL: EIVLTQSPSSLSASVGDRVTITCRASSSVSSSYLHWYQQKPGKAPKLLIYSTSNLAFGVPSRFSGSGSGTSYTFTISSLQPEDIATYYCQQYSGYPLTFGSGTKLEIK
notes: also called humanized 7F3-hIgG1
Regarding B1, in experiment [1], the dissociation constant (Kd) stood at 0.487 nM, the off-rate (koff) is 0.000386 s⁻¹ and the kon was 793000 M⁻¹ s⁻¹.

B2: h16E4 (humanized 16E4, VH4+VL6) (antibody, V domains shown)
VH: QVQLVQSGAEVKKPGASVKVSCKASGYTFTSYWMHWVRQAPGQGLEWMGEIDPSASYTYYNQKFKGRVTMTRDKSSSTVYMELSSLTSEDSAVYYCARSVYYGNKYFDVWGAGTTVTVSS
VL: DIQMTQSPSTLSASVGDRVTITCKASQSVDYAGDSYMNWYQQKPGKAPKLLIYAASNLESGVPSRFSGSGSGTEFTLTISSLQPDDFATYYCQQTNEDPRTFGGGTKLEIK
notes: Detected with anti-human IgG, so a human Fc
In experiment [2], B2 registered a 50% effective concentration (EC50) of 0.312 nM. Further, in experiment [3], the Kd came out at 0.112 nM, the koff was found to be 3.24e-05 s⁻¹ and the kon was 289000 M⁻¹ s⁻¹.

B3: 16E4 (hybridoma) (antibody, IgG2a, V domains shown)
VH: QVQLQQPGAELVKPGASVKLSCKASGYTFTSYWMHWVKQRPGQGLEWIGEIDPSASYTYYNQKFKGKATLTVDKSSSTAYMQLSSLTSEDSAVYYCARSVYYGNKYFDVWGAGTTVTVSS
VL: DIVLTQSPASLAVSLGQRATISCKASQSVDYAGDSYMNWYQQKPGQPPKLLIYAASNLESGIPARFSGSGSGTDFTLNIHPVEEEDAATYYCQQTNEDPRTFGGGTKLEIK
notes: also called 16E4 mAb; 16E4 mIgG2a
As for B3, in experiment [4], the concentration for a half-maximal effect (EC50) worked out at 0.112 nM. Also, in experiment [5], the “M3 gate, % of cells positive for MMRN2 after the antibody” value amounted to 65.9%.
